T1: FcγRIIb extracellular domain with C-terminal His tag (human, UniProt P31994 43-217)
T1 construct: extracellular domain; also called FcgRIIb; not shown: His tag at the C terminus
T1 sequence (looked up): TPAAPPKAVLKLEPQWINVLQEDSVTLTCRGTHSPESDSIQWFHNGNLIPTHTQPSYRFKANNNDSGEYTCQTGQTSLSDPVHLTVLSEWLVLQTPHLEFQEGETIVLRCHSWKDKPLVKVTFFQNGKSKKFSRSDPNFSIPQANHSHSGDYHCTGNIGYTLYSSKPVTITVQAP

T2: FcγRIIa R type extracellular domain with C-terminal His tag (human, UniProt P12318 34-217)
T2 construct: extracellular domain; also called FcgRIIaR; not shown: His tag at the C terminus
T2 sequence (looked up): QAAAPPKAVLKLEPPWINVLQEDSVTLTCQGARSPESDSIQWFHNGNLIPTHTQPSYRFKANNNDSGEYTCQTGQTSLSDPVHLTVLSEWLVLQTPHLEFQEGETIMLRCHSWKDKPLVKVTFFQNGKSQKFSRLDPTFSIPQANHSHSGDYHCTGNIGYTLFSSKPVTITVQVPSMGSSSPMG


Key:
Assay in all cases: SPR, antibody captured, FcgR analyte
[1] = molecular target: T3, FcγRIa extracellular domain with C-terminal His tag (human, UniProt P12314 16-292)
T3 construct: also called FcgRIa; CD64; not shown: His tag at the C terminus

[2] = molecular target: T1, FcγRIIb extracellular domain with …
[3] = molecular target: T2, FcγRIIa R type extracellular domain …

T3 sequence (P12314 16-292): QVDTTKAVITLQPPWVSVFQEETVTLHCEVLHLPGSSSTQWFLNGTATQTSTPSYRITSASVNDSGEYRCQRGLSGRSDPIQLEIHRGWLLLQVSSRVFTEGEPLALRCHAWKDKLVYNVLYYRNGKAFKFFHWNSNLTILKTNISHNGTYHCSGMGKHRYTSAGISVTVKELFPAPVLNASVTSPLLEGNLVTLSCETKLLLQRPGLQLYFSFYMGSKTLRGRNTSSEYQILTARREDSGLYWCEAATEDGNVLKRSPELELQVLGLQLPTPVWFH

Binder	Kd [1] [nM]	Kd [2] [nM]	Kd [3] [nM]
IL6R-BP249/IL6R-L (antibody, human IgG1, kappa, name in EU numbering, human IgG1) heavy: QVQLQESGPGLVKPSETLSLTCAVSGHSISHDHAWSWVRQPPGEGLEWIGFISYSGITNYNPSLQGRVTISRDNSKNTLYLQMNSLRAEDTAVYYCARSLARTTAMDYWGEGTLVTVSSASTKGPSVFPLAPSSKSTSGGTAALGCLVKDYFPEPVTVSWNSGALTSGVHTFPAVLQSSGLYSLSSVVTVPSSSLGTQTYICNVNHKPSNTKVDKKVEPKSCDKTHTCPPCPAPDYLGDDSVFLFPPKPKDTLMISRTPEVTCVVVDVSDEDGEVKFNWYVDGVEVHNAKTKPREEQDNSTYRVVSVLTVLHQDWLNGKEYKCKVSNKALPRPIEKTISKAKGQPREPQVYTLPPSRDELTKNQVSLTCLVKGFYPSDIAVEWESNGQPENNYKTTPPVLDSDGSFFLYSKLTVDKSRWQQGNVFSCSVMHEALHNHYTQESLSLSP light: not shown	7	–	–
IL6R-BP435/IL6R-L (antibody, human IgG1, kappa, name in EU numbering, human IgG1) heavy: QVQLQESGPGLVKPSETLSLTCAVSGHSISHDHAWSWVRQPPGEGLEWIGFISYSGITNYNPSLQGRVTISRDNSKNTLYLQMNSLRAEDTAVYYCARSLARTTAMDYWGEGTLVTVSSASTKGPSVFPLAPSSKSTSGGTAALGCLVKDYFPEPVTVSWNSGALTSGVHTFPAVLQSSGLYSLSSVVTVPSSSLGTQTYICNVNHKPSNTKVDKKVEPKSCDKTHTCPPCPAPDLLGDDSVFLFPPKPKDTLMISRTPEVTCVVVDVSDEDGEVKFNWYVDGVEVHNAKTKPREEQDNSTYRVVSVLTVLHQDWLNGKEYKCKVSNAALPRPTEKTISKAKGQPREPQVYTLPPSRDELTKNQVSLTCLVKGFYPSDIAVEWESNGQPENNYKTTPPVLDSDGSFFLYSKLTVDKSRWQQGNVFSCSVMHEALHNHYTQESLSLSP light: not shown	1	–	–
IL6R-BP495/IL6R-L (antibody, human IgG1, kappa, name in EU numbering, human IgG1) heavy: QVQLQESGPGLVKPSETLSLTCAVSGHSISHDHAWSWVRQPPGEGLEWIGFISYSGITNYNPSLQGRVTISRDNSKNTLYLQMNSLRAEDTAVYYCARSLARTTAMDYWGEGTLVTVSSASTKGPSVFPLAPSSKSTSGGTAALGCLVKDYFPEPVTVSWNSGALTSGVHTFPAVLQSSGLYSLSSVVTVPSSSLGTQTYICNVNHKPSNTKVDKKVEPKSCDKTHTCPPCPAPELLGDDSVFLFPPKPKDTLMISRTPEVTCVVVDVGEEDGEVKFNWYVDGVEVHNAKTKPREEQDNSTYRVVSVLTVLHQDWLNGKEYKCKVSNKALPRPIEKTISKAKGQPREPQVYTLPPSRDELTKNQVSLTCLVKGFYPSDIAVEWESNGQPENNYKTTPPVLDSDGSFFLYSKLTVDKSRWQQGNVFSCSVMHEALHNHYTQESLSLSP light: not shown	8.3	9.7	–
IL6R-BP501/IL6R-L (antibody, human IgG1, kappa, name in EU numbering, human IgG1) heavy: QVQLQESGPGLVKPSETLSLTCAVSGHSISHDHAWSWVRQPPGEGLEWIGFISYSGITNYNPSLQGRVTISRDNSKNTLYLQMNSLRAEDTAVYYCARSLARTTAMDYWGEGTLVTVSSASTKGPSVFPLAPSSKSTSGGTAALGCLVKDYFPEPVTVSWNSGALTSGVHTFPAVLQSSGLYSLSSVVTVPSSSLGTQTYICNVNHKPSNTKVDKKVEPKSCDKTHTCPPCPAPELLGDDSVFLFPPKPKDTLMISRTPEVTCVVIDVAEEDGEVKFNWYVDGVEVHNAKTKPREEQYNSTYRVVSVLTVLHQDWLNGKEYKCKVSNKALPAPIEKTISKAKGQPREPQVYTLPPSRDELTKNQVSLTCLVKGFYPSDIAVEWESNGQPENNYKTTPPVLDSDGSFFLYSKLTVDKSRWQQGNVFSCSVMHEALHNHYTQESLSLSP light: not shown	2.1	25	–
IL6R-BP493/IL6R-L (antibody, human IgG1, kappa, name in EU numbering, human IgG1) heavy: QVQLQESGPGLVKPSETLSLTCAVSGHSISHDHAWSWVRQPPGEGLEWIGFISYSGITNYNPSLQGRVTISRDNSKNTLYLQMNSLRAEDTAVYYCARSLARTTAMDYWGEGTLVTVSSASTKGPSVFPLAPSSKSTSGGTAALGCLVKDYFPEPVTVSWNSGALTSGVHTFPAVLQSSGLYSLSSVVTVPSSSLGTQTYICNVNHKPSNTKVDKKVEPKSCDKTHTCPPCPAPELLGGDSVFLFPPKPKDTLMISRTPEVTCVVIDVAEEDGEVKFNWYVDGVEVHNAKTKPREEQDNSTYRVVSVLTVLHQDWLNGKEYKCKVSNKALPAPIEKTISKAKGQPREPQVYTLPPSRDELTKNQVSLTCLVKGFYPSDIAVEWESNGQPENNYKTTPPVLDSDGSFFLYSKLTVDKSRWQQGNVFSCSVMHEALHNHYTQESLSLSP light: not shown	0.82	21	–
IL6R-BP557/IL6R-L (antibody, human IgG1, kappa, name in EU numbering, human IgG1) heavy: QVQLQESGPGLVKPSETLSLTCAVSGHSISHDHAWSWVRQPPGEGLEWIGFISYSGITNYNPSLQGRVTISRDNSKNTLYLQMNSLRAEDTAVYYCARSLARTTAMDYWGEGTLVTVSSASTKGPSVFPLAPSSKSTSGGTAALGCLVKDYFPEPVTVSWNSGALTSGVHTFPAVLQSSGLYSLSSVVTVPSSSLGTQTYICNVNHKPSNTKVDKKVEPKSCDKTHTCPPCPAPELLGDDSVFLFPPKPKDTLMISRTPEVTCVVVDVGDEDGEVKFNWYVDGVEVHNAKTKPREEQDNSTYRVVSVLTVLHQDWLNGKEYKCKVSNKALPRPIEKTISKAKGQPREPQVYTLPPSRDELTKNQVSLTCLVKGFYPSDIAVEWESNGQPENNYKTTPPVLDSDGSFFLYSKLTVDKSRWQQGNVFSCSVMHEALHNHYTQESLSLSP light: not shown	–	20	850
IL6R-BP268/IL6R-L (antibody, human IgG1, kappa, name in EU numbering, human IgG1) heavy: QVQLQESGPGLVKPSETLSLTCAVSGHSISHDHAWSWVRQPPGEGLEWIGFISYSGITNYNPSLQGRVTISRDNSKNTLYLQMNSLRAEDTAVYYCARSLARTTAMDYWGEGTLVTVSSASTKGPSVFPLAPSSKSTSGGTAALGCLVKDYFPEPVTVSWNSGALTSGVHTFPAVLQSSGLYSLSSVVTVPSSSLGTQTYICNVNHKPSNTKVDKKVEPKSCDKTHTCPPCPAPDLLGDDSVFLFPPKPKDTLMISRTPEVTCVVVDVSEEDGEVKFNWYVDGVEVHNAKTKPREEQDNSTYRVVSVLTVLHQDWLNGKEYKCKVSNKALPAPIEKTISKAKGQPREPQVYTLPPSRDELTKNQVSLTCLVKGFYPSDIAVEWESNGQPENNYKTTPPVLDSDGSFFLYSKLTVDKSRWQQGNVFSCSVMHEALHNHYTQESLSLSP light: not shown	4.5	92	–
IL6R-BP426/IL6R-L (antibody, human IgG1, kappa, name in EU numbering, human IgG1) heavy: QVQLQESGPGLVKPSETLSLTCAVSGHSISHDHAWSWVRQPPGEGLEWIGFISYSGITNYNPSLQGRVTISRDNSKNTLYLQMNSLRAEDTAVYYCARSLARTTAMDYWGEGTLVTVSSASTKGPSVFPLAPSSKSTSGGTAALGCLVKDYFPEPVTVSWNSGALTSGVHTFPAVLQSSGLYSLSSVVTVPSSSLGTQTYICNVNHKPSNTKVDKKVEPKSCDKTHTCPPCPAPDLLGDDSVFLFPPKPKDTLMISRTPEVTCVVVDVAEDDGEVKFNWYVDGVEVHNAKTKPREEQYNSTYRVVSVLTVLHQDWLNGKEYKCKVSNKALPRPIEKTISKAKGQPREPQVYTLPPSRDELTKNQVSLTCLVKGFYPSDIAVEWESNGQPENNYKTTPPVLDSDGSFFLYSKLTVDKSRWQQGNVFSCSVMHEALHNHYTQESLSLSP light: not shown	1	–	–
IL6R-BP480/IL6R-L (antibody, human IgG1, kappa, name in EU numbering, human IgG1) heavy: QVQLQESGPGLVKPSETLSLTCAVSGHSISHDHAWSWVRQPPGEGLEWIGFISYSGITNYNPSLQGRVTISRDNSKNTLYLQMNSLRAEDTAVYYCARSLARTTAMDYWGEGTLVTVSSASTKGPSVFPLAPSSKSTSGGTAALGCLVKDYFPEPVTVSWNSGALTSGVHTFPAVLQSSGLYSLSSVVTVPSSSLGTQTYICNVNHKPSNTKVDKKVEPKSCDKTHTCPPCPAPDLLGDDSVFLFPPKPKDTLMISRTPEVTCVVVDLSEDDGEVKFNWYVDGVEVHNAKTKPREEQYNSTYRVVSVLTVLHQDWLNGKEYKCKVSNKALPAPIEKTISKAKGQPREPQVYTLPPSRDELTKNQVSLTCLVKGFYPSDIAVEWESNGQPENNYKTTPPVLDSDGSFFLYSKLTVDKSRWQQGNVFSCSVMHEALHNHYTQESLSLSP light: not shown	–	200	6300
IL6R-BP264/IL6R-L (antibody, human IgG1, kappa, name in EU numbering, human IgG1) heavy: QVQLQESGPGLVKPSETLSLTCAVSGHSISHDHAWSWVRQPPGEGLEWIGFISYSGITNYNPSLQGRVTISRDNSKNTLYLQMNSLRAEDTAVYYCARSLARTTAMDYWGEGTLVTVSSASTKGPSVFPLAPSSKSTSGGTAALGCLVKDYFPEPVTVSWNSGALTSGVHTFPAVLQSSGLYSLSSVVTVPSSSLGTQTYICNVNHKPSNTKVDKKVEPKSCDKTHTCPPCPAPDLLGDDSVFLFPPKPKDTLMISRTPEVTCVVVDVSEEDGEVKFNWYVDGVEVHNAKTKPREEQDNSTYRVVSVLTVLHQDWLNGKEYKCKVSNKALPRPIEKTISKAKGQPREPQVYTLPPSRDELTKNQVSLTCLVKGFYPSDIAVEWESNGQPENNYKTTPPVLDSDGSFFLYSKLTVDKSRWQQGNVFSCSVMHEALHNHYTQESLSLSP light: not shown	7.4	–	350
IL6R-BP445/IL6R-L (antibody, human IgG1, kappa, name in EU numbering, human IgG1) heavy: QVQLQESGPGLVKPSETLSLTCAVSGHSISHDHAWSWVRQPPGEGLEWIGFISYSGITNYNPSLQGRVTISRDNSKNTLYLQMNSLRAEDTAVYYCARSLARTTAMDYWGEGTLVTVSSASTKGPSVFPLAPSSKSTSGGTAALGCLVKDYFPEPVTVSWNSGALTSGVHTFPAVLQSSGLYSLSSVVTVPSSSLGTQTYICNVNHKPSNTKVDKKVEPKSCDKTHTCPPCPAPDLLGDDSVFLFPPKPKDTLMISRTPEVTCVVIDVAEEDGEVKFNWYVDGVEVHNAKTKPREEQYNSTYRVVSVLTVLHQDWLNGKEYKCKVSNKALPRPIEKTISKAKGQPREPQVYTLPPSRDELTKNQVSLTCLVKGFYPSDIAVEWESNGQPENNYKTTPPVLDSDGSFFLYSKLTVDKSRWQQGNVFSCSVMHEALHNHYTQESLSLSP light: not shown	2	2.6	80

From patent US20220411483A1 (Chugai, published 2022)
